From US20240252614A1 (Pfizer, published 2024)

Columns and labels:
[1] = biological target: T1, PIV1045 (PIV1); assay: BLI, 56C stress
T1 construct: Q92L, G134A
Experimental: (§1) All measurements were conducted at 30° C. temperature in 96-well black plates (Corning, Corning, NY) with a final volume of 240 μL per well at a constant agitation rate of 1000 RPM.
(§2) Conformation integrity of PIV1 F protein mutants were evaluated by a thermal stress experiment. Crude cell culture supernatants were normalized based on the results of the titer quantitation and then incubated for 1 hour at room temperature and two higher temperatures. For the initial testing of PIV1 mutants, the two temperatures were 50° C. and 53° C. […] Anti-Human IgG Fc Capture (AHC) biosensors were first equilibrated in PB for before being dipped into more PB to establish the initial baseline. […] The mAb-bound biosensors were then dipped into the thermal stresses cell culture supernatants for 5 minutes.

[2] = biological target: T2, PIV1042 (PIV1); assay: BLI, 56C stress
T2 construct: Q92A
Experimental: as §1, §2

[3] = biological target: T3, PIV1044 (PIV1); assay: BLI, 56C stress
T3 construct: Q92L
Experimental: as §1, §2

[4] = biological target: T4, PIV1046 (PIV1); assay: BLI, 56C stress
T4 construct: A466V, S473V
Experimental: as §1, §2

[5] = biological target: T5, PIV1043 (PIV1); assay: BLI, 56C stress
T5 construct: Q92A, G134A
Experimental: as §1, §2

[6] = biological target: T6, PIV1067 (PIV1); assay: BLI, 53C stress
T6 construct: F113G, F114S, Q92C-G134C, A466I, S473I, A480I
Experimental: (§3) The OCTET HTX (Sartorius, Gottingen, Germany) instrument was used to evaluate the expression and conformational integrity for each mutant. All measurements were conducted at 30° C. temperature in 96-well black plates (Corning, Corning, NY) with a final volume of 240 μL per well at a constant agitation rate of 1000 RPM.
as §2

[7] = biological target: T7, PIV1060 (PIV1); assay: BLI, 53C stress
T7 construct: Q92L, G134A, A466L, S473L, A480L
Experimental: as §3, §2

[8] = biological target: T8, PIV1066 (PIV1); assay: BLI, 53C stress
T8 construct: A466I, S473I, A480L, Q92L, G134A
Experimental: as §3, §2

[9] = biological target: T9, PIV1052 (PIV1); assay: BLI, 53C stress
T9 construct: Q92C-G134C, A466V, S473V; also called PV1052
Experimental: as §3, §2

[10] = biological target: T10, PIV1048 (PIV1); assay: BLI, 53C stress
T10 construct: Q92C-G134C, A466L, S473L, A480L
Experimental: as §3, §2

[11] = biological target: T11, PIV1065 (PIV1); assay: BLI, 53C stress
T11 construct: F113G, F114S, Q92C-G134C, A466I, S473I
Experimental: as §3, §2

[12] = biological target: T12, PIV1033 (PIV1); assay: BLI, 53C stress
T12 construct: T198A
Experimental: as §1, §2

[13] = biological target: T13, PIV1014 (PIV1); assay: BLI, 53C stress
T13 construct: Q92C-G134C
Experimental: as §1, §2

[14] = biological target: T14, PIV1023 (PIV1); assay: BLI, 53C stress
T14 construct: A466L
Experimental: as §1, §2

[15] = biological target: T15, PIV1039 (PIV1); assay: BLI, 53C stress
T15 construct: A128P
Experimental: as §1, §2

[16] = biological target: T16, PIV1030 (PIV1); assay: BLI, 53C stress
T16 construct: A466L, S473A
Experimental: as §1, §2

[17] = biological target: T17, PIV1026 (PIV1); assay: BLI, 53C stress
T17 construct: S473V
Experimental: as §1, §2

[18] = biological target: T18, PIV1036 (PIV1); assay: BLI, 53C stress
T18 construct: G134A
Experimental: as §1, §2

[19] = biological target: T19, PIV1028 (PIV1); assay: BLI, 53C stress
T19 construct: A480L
Experimental: as §1, §2

[20] = biological target: T20, PIV1027 (PIV1); assay: BLI, 53C stress
T20 construct: S473L
Experimental: as §1, §2

[21] = biological target: T21, PIV1024 (PIV1); assay: BLI, 53C stress
T21 construct: A466V
Experimental: as §1, §2

[22] = biological target: T22, PIV1031 (PIV1); assay: BLI, 53C stress
T22 construct: A466L, S473L
Experimental: as §1, §2
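Note: binding of thermally stressed PIV1 F mutant supernatant to mAb on AHC biosensors for 5 min.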

B1: PIV1-8 mAb (antibody, V domains shown)
VH: QVQLVQSGAEVKKPGSSVKVSCEASGGTFSNYVISWVRQAPGQGLEWMGGIIPVFATAKYAQKFQGRVTIIADQSTNTAYLELSSLRSDDTAVYFCASVDSGGTWWDAFAIWGQGTMVTVSS
VL: QAVVTQPRSVSGSPGQAVTISCTGTSSDVGGYNYVSWYQHHPGKAPKLIIYDVTKRPSGVPDRFSGSKSGNTASLTISGLQTEYEADYYCCSYAGSYTLVFGGGTKLTVLG
notes: human IgG1; also called hPIV1-8 mAb; hPIV1-8
- Response Shift [1]: -0.095 nm
- Response Shift [2]: -0.103 nm
- Response Shift [3]: -0.122 nm
- Response Shift [4]: -0.091 nm
- Response Shift [5]: -0.102 nm
- Response Shift [6]: 0.896 nm
- Response Shift [7]: 0.671 nm
- Response Shift [8]: 0.722 nm
- Response Shift [9]: -0.026 nm
- Response Shift [10]: 0.783 nm
- Response Shift [11]: 0.816 nm
- Response Shift [12]: -0.073 nm
- Response Shift [13]: 0.009 nm
- Response Shift [14]: -0.001 nm
- Response Shift [15]: -0.055 nm
- Response Shift [16]: -0.046 nm
- Response Shift [17]: -0.039 nm
- Response Shift [18]: -0.042 nm
- Response Shift [19]: -0.052 nm
- Response Shift [20]: -0.02 nm
- Response Shift [21]: -0.016 nm
- Response Shift [22]: 0.489 nm
